According to IntAct's records for PubMed 30488537:

B1: Prelamin-A/C (Homo sapiens), P02545 (parent)
chain: METPSQRRATRSGAQASSTPLSPTRITRLQEKEDLQELNDRLAVYIDRVRSLETENAGLRLRITESEEVVSREVSGIKAAYEAELGDARKTLDSVAKERARLQLELSKVREEFKELKARNTKKEGDLIAAQARLKDLEALLNSKEAALSTALSEKRTLEGELHDLRGQVAKLEAALGEAKKQLQDEMLRRVDAENRLQTMKEELDFQKNIYSEELRETKRRHETRLVEIDNGKQREFESRLADALQELRAQHEDQVEQYKKELEKTYSAKLDNARQSAERNSNLVGAAHEELQQSRIRIDSLSAQLSQLQKQLAAKEAKLRDLEDSLARERDTSRRLLAEKEREMAEMRARMQQQLDEYQELLDIKLALDMEIHAYRKLLEGEEERLRLSPSPTSQRSRGRASSHSSQTQGGGSVTKKRKLESTESRSSFSQHARTSGRVAVEEVDEEGKFVRLRNKSNEDQSMGNWQIKRQNGDDPLLTYRFPPKFTLKAGQVVTIWAAGAGATHSPPTDLVWKAQNTWGCGNSLRTALINSTGEEVAMRKLVRSVTVVEDDEDEDGDDLLHHHHGSHCSSSGDPAEYNLRSRTVLCGTCGQPADKASASGSGAQVGGPISSGSSASSVTVTRSYRSVGGSGGGSFGDNLVTRSYLLGNSSPRTQSPQNCSIM
partner: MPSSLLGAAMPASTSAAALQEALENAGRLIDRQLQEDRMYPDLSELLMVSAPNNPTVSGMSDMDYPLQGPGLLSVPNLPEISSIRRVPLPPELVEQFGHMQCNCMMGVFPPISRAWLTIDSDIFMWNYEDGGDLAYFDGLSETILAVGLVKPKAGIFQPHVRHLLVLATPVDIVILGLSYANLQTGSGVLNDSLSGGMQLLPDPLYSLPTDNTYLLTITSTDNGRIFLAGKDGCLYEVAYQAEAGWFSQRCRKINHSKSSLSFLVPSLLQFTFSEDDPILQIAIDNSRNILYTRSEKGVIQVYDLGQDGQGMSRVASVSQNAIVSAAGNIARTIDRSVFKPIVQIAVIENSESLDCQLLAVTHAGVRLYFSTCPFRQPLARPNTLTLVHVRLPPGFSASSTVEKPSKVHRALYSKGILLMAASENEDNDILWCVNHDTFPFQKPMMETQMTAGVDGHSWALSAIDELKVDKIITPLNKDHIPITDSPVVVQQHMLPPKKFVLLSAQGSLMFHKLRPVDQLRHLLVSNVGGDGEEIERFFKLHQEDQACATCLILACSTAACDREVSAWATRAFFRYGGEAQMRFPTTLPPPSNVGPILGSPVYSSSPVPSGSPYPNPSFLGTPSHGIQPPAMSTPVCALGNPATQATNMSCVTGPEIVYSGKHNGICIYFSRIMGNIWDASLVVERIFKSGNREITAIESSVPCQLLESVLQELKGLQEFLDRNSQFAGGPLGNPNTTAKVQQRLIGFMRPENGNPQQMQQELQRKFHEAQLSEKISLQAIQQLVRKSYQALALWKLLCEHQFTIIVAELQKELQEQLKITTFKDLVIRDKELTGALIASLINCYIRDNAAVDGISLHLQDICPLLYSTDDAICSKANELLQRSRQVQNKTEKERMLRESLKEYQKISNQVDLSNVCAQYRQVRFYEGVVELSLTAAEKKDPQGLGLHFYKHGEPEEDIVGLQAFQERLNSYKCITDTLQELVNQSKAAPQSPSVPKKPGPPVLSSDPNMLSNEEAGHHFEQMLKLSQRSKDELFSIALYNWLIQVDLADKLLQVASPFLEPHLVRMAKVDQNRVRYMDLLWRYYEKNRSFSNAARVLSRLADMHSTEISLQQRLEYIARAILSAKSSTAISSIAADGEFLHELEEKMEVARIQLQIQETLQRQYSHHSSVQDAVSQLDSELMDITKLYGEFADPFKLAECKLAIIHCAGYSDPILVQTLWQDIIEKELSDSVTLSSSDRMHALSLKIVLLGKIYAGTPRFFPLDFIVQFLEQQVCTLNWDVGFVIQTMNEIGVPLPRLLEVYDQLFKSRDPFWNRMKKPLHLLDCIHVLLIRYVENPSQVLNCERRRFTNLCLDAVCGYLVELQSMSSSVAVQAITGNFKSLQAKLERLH

Variants of: B1
Conditions: with nu155_human NUP155, O75694

effect of a mutation on the interaction	Variant
decreasing interaction strength	R399C

Variants of: B1
Conditions: with nu155_human NUP155, O75694
Remark: another data set of the same source

effect of a mutation on the interaction	Variant
with no effect	R399C
